In patent US20240034774A1 (Gilead, published 2024):

Columns and labels:
[1] = molecular target: BSA (UniProt P02769 25-607); assay: single-point ELISA, BSA control
[2] = molecular target: gp120 SHIV SF162 P3 (SHIV SF162 P3); assay: single-point ELISA at EC50 conc. of A-1
[3] = molecular target: gp120 CAAN (HIV (CAAN)); assay: single-point ELISA at EC50 conc. of A-1
[4] = molecular target: gp120 Bal (HIV (Bal)); assay: single-point ELISA at EC50 conc. of A-1

Binder	ELISA A450 [1]	ELISA A450 [2]	ELISA A450 [3]	ELISA A450 [4]
1.26.1-1 (antibody, human IgG1, kappa) heavy: QVQLLQSGAAVTKPGASVRVSCEASGYNIRDYFIHWWRQAPGQGLQWVGWINPKTGQPNNPRQFQGRVSLTRHASWDFDTFSFYMDLKALRSDDTATYFCARQRSDYWDFDVWGSGTQVTVSSASTKGPSVFPLAPSSKSTSGGTAALGCLVKDYFPEPVTVSWNSGALTSGVHTFPAVLQSSGLYSLSSVVTVPSSSLGTQTYICNVNHKPSNTKVDKKVEPKSCDKTHTCPPCPAPELLAGPDVFLFPPKPKDTLMISRTPEVTCVVVDVSHEDPEVKFNWYVDGVEVHNAKTKPREEQYNSTYRVVSVLTVLHQDWLNGKEYKCKVSNKALPLPEEKTISKAKGQPREPQVYTLPPSREEMTKNQVSLTCLVKGFYPSDIAVEWESNGQPENNYKTTPPVLDSDGSFFLYSKLTVDKSRWQQGNVFSCSVLHEALHSHYTQKSLSLSPGK light: DIQMTQSPSSLSASVGDTVTITCQANGYLNWYQQRRGKAPKLLIYDGSKLERGVPSRFSGRRWGQEYNLTINNLQPEDIATYFCQVYEFVVPGTRLDLKRTVAAPSVFIFPPSDEQLKSGTASVVCLLNNFYPREAKVQWKVDNALQSGNSQESVTEQDSKDSTYSLSSTLTLSKADYEKHKVYACEVTHQGLSSPVTKSFNRGEC	0.06 A450	0.94 A450	1 A450	0.81 A450
1.30.1-1 (antibody, human IgG1, kappa) heavy: QVQLLQSGAAVTKPGASVRVSCEASGYNIRDYFIHWWRQAPGQGLQWVGWINPKTGQPNNPRQFQGRVSLTRHASWDFDTFSFYMDLKALRSDDTAVYFCARQRSDYWDFDVWGSGTMVTVSSASTKGPSVFPLAPSSKSTSGGTAALGCLVKDYFPEPVTVSWNSGALTSGVHTFPAVLQSSGLYSLSSVVTVPSSSLGTQTYICNVNHKPSNTKVDKKVEPKSCDKTHTCPPCPAPELLAGPDVFLFPPKPKDTLMISRTPEVTCVVVDVSHEDPEVKFNWYVDGVEVHNAKTKPREEQYNSTYRVVSVLTVLHQDWLNGKEYKCKVSNKALPLPEEKTISKAKGQPREPQVYTLPPSREEMTKNQVSLTCLVKGFYPSDIAVEWESNGQPENNYKTTPPVLDSDGSFFLYSKLTVDKSRWQQGNVFSCSVLHEALHSHYTQKSLSLSPGK light: DIQMTQSPSSLSASVGDTVTITCQANGYLNWYQQRRGKAPKLLIYDGSKLERGVPSRFSGRRWGQEYNLTINNLQPEDIATYFCQVYEFVVPGTRLDLKRTVAAPSVFIFPPSDEQLKSGTASVVCLLNNFYPREAKVQWKVDNALQSGNSQESVTEQDSKDSTYSLSSTLTLSKADYEKHKVYACEVTHQGLSSPVTKSFNRGEC	0.06 A450	1.03 A450	1.05 A450	0.81 A450
1.31.1-1 (antibody, human IgG1, kappa) heavy: QVQLVQSGAEVTKPGASVRVSCEASGYNIRDYFIHWWRQAPGQGLQWVGWINPKTGQPNNPRQFQGRVSLTRHASWDFDTFSFYMDLKALRSDDTATYFCARQRSDYWDFDVWGSGTQVTVSSASTKGPSVFPLAPSSKSTSGGTAALGCLVKDYFPEPVTVSWNSGALTSGVHTFPAVLQSSGLYSLSSVVTVPSSSLGTQTYICNVNHKPSNTKVDKKVEPKSCDKTHTCPPCPAPELLAGPDVFLFPPKPKDTLMISRTPEVTCVVVDVSHEDPEVKFNWYVDGVEVHNAKTKPREEQYNSTYRVVSVLTVLHQDWLNGKEYKCKVSNKALPLPEEKTISKAKGQPREPQVYTLPPSREEMTKNQVSLTCLVKGFYPSDIAVEWESNGQPENNYKTTPPVLDSDGSFFLYSKLTVDKSRWQQGNVFSCSVLHEALHSHYTQKSLSLSPGK light: DIQMTQSPSSLSASVGDTVTITCQANGYLNWYQQRRGKAPKLLIYDGSKLERGVPSRFSGRRWGQEYNLTINNLQPEDIATYFCQVYEFVVPGTRLDLKRTVAAPSVFIFPPSDEQLKSGTASVVCLLNNFYPREAKVQWKVDNALQSGNSQESVTEQDSKDSTYSLSSTLTLSKADYEKHKVYACEVTHQGLSSPVTKSFNRGEC	0.06 A450	0.87 A450	0.92 A450	0.82 A450
1.31.31-1 (antibody, human IgG1, kappa) heavy: QVQLVQSGAEVTKPGASVRVSCEASGYNIRDYFIHWWRQAPGQGLQWVGWINPKTGQPNNPRQFQGRVSLTRHASWDFDTFSFYMDLKALRSDDTATYFCARQRSDYWDFDVWGSGTQVTVSSASTKGPSVFPLAPSSKSTSGGTAALGCLVKDYFPEPVTVSWNSGALTSGVHTFPAVLQSSGLYSLSSVVTVPSSSLGTQTYICNVNHKPSNTKVDKKVEPKSCDKTHTCPPCPAPELLAGPDVFLFPPKPKDTLMISRTPEVTCVVVDVSHEDPEVKFNWYVDGVEVHNAKTKPREEQYNSTYRVVSVLTVLHQDWLNGKEYKCKVSNKALPLPEEKTISKAKGQPREPQVYTLPPSREEMTKNQVSLTCLVKGFYPSDIAVEWESNGQPENNYKTTPPVLDSDGSFFLYSKLTVDKSRWQQGNVFSCSVLHEALHSHYTQKSLSLSPGK light: DIQMTQSPSSLSASVGDTVTITCQANGYLNWYQQRRGKAPKLLIYDGSKLERGVPSRFSGRRWGQEYTLTISSLQPEDIATYFCQVYEFVVPGTNLDLKRTVAAPSVFIFPPSDEQLKSGTASVVCLLNNFYPREAKVQWKVDNALQSGNSQESVTEQDSKDSTYSLSSTLTLSKADYEKHKVYACEVTHQGLSSPVTKSFNRGEC	0.07 A450	0.97 A450	1.02 A450	0.98 A450
1.29.1-1 (antibody, human IgG1, kappa) heavy: QVQLLQSGAAVTKPGASVRVSCEASGYNIRDYFIHWWRQAPGQGLQWVGWINPKTGQPNNPRQFQGRVSLTRHASWDFDTFSFYMDLKALRSDDTAVYFCARQRSDYWDFDVWGQGTQVTVSSASTKGPSVFPLAPSSKSTSGGTAALGCLVKDYFPEPVTVSWNSGALTSGVHTFPAVLQSSGLYSLSSVVTVPSSSLGTQTYICNVNHKPSNTKVDKKVEPKSCDKTHTCPPCPAPELLAGPDVFLFPPKPKDTLMISRTPEVTCVVVDVSHEDPEVKFNWYVDGVEVHNAKTKPREEQYNSTYRVVSVLTVLHQDWLNGKEYKCKVSNKALPLPEEKTISKAKGQPREPQVYTLPPSREEMTKNQVSLTCLVKGFYPSDIAVEWESNGQPENNYKTTPPVLDSDGSFFLYSKLTVDKSRWQQGNVFSCSVLHEALHSHYTQKSLSLSPGK light: DIQMTQSPSSLSASVGDTVTITCQANGYLNWYQQRRGKAPKLLIYDGSKLERGVPSRFSGRRWGQEYNLTINNLQPEDIATYFCQVYEFVVPGTRLDLKRTVAAPSVFIFPPSDEQLKSGTASVVCLLNNFYPREAKVQWKVDNALQSGNSQESVTEQDSKDSTYSLSSTLTLSKADYEKHKVYACEVTHQGLSSPVTKSFNRGEC	0.06 A450	0.98 A450	1.08 A450	1.03 A450
1.31.32-1 (antibody, human IgG1, kappa) heavy: QVQLVQSGAEVTKPGASVRVSCEASGYNIRDYFIHWWRQAPGQGLQWVGWINPKTGQPNNPRQFQGRVSLTRHASWDFDTFSFYMDLKALRSDDTATYFCARQRSDYWDFDVWGSGTQVTVSSASTKGPSVFPLAPSSKSTSGGTAALGCLVKDYFPEPVTVSWNSGALTSGVHTFPAVLQSSGLYSLSSVVTVPSSSLGTQTYICNVNHKPSNTKVDKKVEPKSCDKTHTCPPCPAPELLAGPDVFLFPPKPKDTLMISRTPEVTCVVVDVSHEDPEVKFNWYVDGVEVHNAKTKPREEQYNSTYRVVSVLTVLHQDWLNGKEYKCKVSNKALPLPEEKTISKAKGQPREPQVYTLPPSREEMTKNQVSLTCLVKGFYPSDIAVEWESNGQPENNYKTTPPVLDSDGSFFLYSKLTVDKSRWQQGNVFSCSVLHEALHSHYTQKSLSLSPGK light: DIQMTQSPSSLSASVGDTVTITCQANGYLNWYQQRRGKAPKLLIYDGSKLERGVPSRFSGRRWGQEYTLTISSLQPEDIATYFCQVYEFVTPGTRLDLKRTVAAPSVFIFPPSDEQLKSGTASVVCLLNNFYPREAKVQWKVDNALQSGNSQESVTEQDSKDSTYSLSSTLTLSKADYEKHKVYACEVTHQGLSSPVTKSFNRGEC	0.06 A450	0.91 A450	1.04 A450	0.98 A450
1.27.1-1 (antibody, human IgG1, kappa) heavy: QVQLLQSGAAVTKPGASVRVSCEASGYNIRDYFIHWWRQAPGQGLQWVGWINPKTGQPNNPRQFQGRVSLTRHASWDFDTFSFYMDLKALRSDDTAVYFCARQRTDYWDFDVWGSGTQVTVSSASTKGPSVFPLAPSSKSTSGGTAALGCLVKDYFPEPVTVSWNSGALTSGVHTFPAVLQSSGLYSLSSVVTVPSSSLGTQTYICNVNHKPSNTKVDKKVEPKSCDKTHTCPPCPAPELLAGPDVFLFPPKPKDTLMISRTPEVTCVVVDVSHEDPEVKFNWYVDGVEVHNAKTKPREEQYNSTYRVVSVLTVLHQDWLNGKEYKCKVSNKALPLPEEKTISKAKGQPREPQVYTLPPSREEMTKNQVSLTCLVKGFYPSDIAVEWESNGQPENNYKTTPPVLDSDGSFFLYSKLTVDKSRWQQGNVFSCSVLHEALHSHYTQKSLSLSPGK light: DIQMTQSPSSLSASVGDTVTITCQANGYLNWYQQRRGKAPKLLIYDGSKLERGVPSRFSGRRWGQEYNLTINNLQPEDIATYFCQVYEFVVPGTRLDLKRTVAAPSVFIFPPSDEQLKSGTASVVCLLNNFYPREAKVQWKVDNALQSGNSQESVTEQDSKDSTYSLSSTLTLSKADYEKHKVYACEVTHQGLSSPVTKSFNRGEC	0.07 A450	0.86 A450	0.86 A450	0.86 A450
1.28.1-1 (antibody, human IgG1, kappa) heavy: QVQLLQSGAAVTKPGASVRVSCEASGYNIRDYFIHWWRQAPGQGLQWVGWINPKTGQPNNPRQFQGRVSLTRHASWDFDTFSFYMDLKALRSDDTATYFCARQRTDYWDFDVWGSGTQVTVSSASTKGPSVFPLAPSSKSTSGGTAALGCLVKDYFPEPVTVSWNSGALTSGVHTFPAVLQSSGLYSLSSVVTVPSSSLGTQTYICNVNHKPSNTKVDKKVEPKSCDKTHTCPPCPAPELLAGPDVFLFPPKPKDTLMISRTPEVTCVVVDVSHEDPEVKFNWYVDGVEVHNAKTKPREEQYNSTYRVVSVLTVLHQDWLNGKEYKCKVSNKALPLPEEKTISKAKGQPREPQVYTLPPSREEMTKNQVSLTCLVKGFYPSDIAVEWESNGQPENNYKTTPPVLDSDGSFFLYSKLTVDKSRWQQGNVFSCSVLHEALHSHYTQKSLSLSPGK light: DIQMTQSPSSLSASVGDTVTITCQANGYLNWYQQRRGKAPKLLIYDGSKLERGVPSRFSGRRWGQEYNLTINNLQPEDIATYFCQVYEFVVPGTRLDLKRTVAAPSVFIFPPSDEQLKSGTASVVCLLNNFYPREAKVQWKVDNALQSGNSQESVTEQDSKDSTYSLSSTLTLSKADYEKHKVYACEVTHQGLSSPVTKSFNRGEC	0.06 A450	0.99 A450	0.99 A450	1.05 A450
